Test results as given in patent US20200181257A1 (Chugai, published 2020).

Tests used:
Experiment in all cases: SPR, antibody captured on Protein A
[1] = target: T1, human Fcγ receptor hFcgRIIb (human, UniProt P31994 43-217, limits assumed)
T1 construct: Construct used in the SPR assay is not described; also called FcγRIIb; FcγIIB
T1 sequence: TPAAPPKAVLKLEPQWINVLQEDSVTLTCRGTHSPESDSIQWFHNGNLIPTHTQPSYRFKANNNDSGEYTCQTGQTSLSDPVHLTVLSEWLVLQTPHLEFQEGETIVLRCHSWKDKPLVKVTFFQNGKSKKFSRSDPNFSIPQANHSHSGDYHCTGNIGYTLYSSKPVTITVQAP
Procedure: (§1) The CH2 domain, which was modified in this examination, is known to be involved in interaction with several human Fcγ receptors (hereinafter denoted as hFcgRs) which affect effector functions. Therefore, the binding of TS1 and TS19 prepared by using the H chain of anti-IL6R produced in Example 2 to hFcgRs was measured, according to the method described in Reference Example 3.
(§2) Interactions between antibodies and hFcgRs (hFcgRIa, hFcgRIIa(R), hFcgRIIa(H), hFcgRIIb, hFcgRIIIa(F), and hFcgRIIIa(V)) were analyzed using Biacore T100 (GE Healthcare). HBS-EP+(GE Healthcare) was used for the running buffer, and the measurement temperature was set at 25° C. Protein A (Invitrogen) was immobilized by the amino coupling method, and an antibody of interest was captured thereon. Then, hFcγR solutions diluted using the running buffer were injected to allow interaction with the captured antibody at a flow rate of 30 μL/min for five minutes for hFcγRIa, and at a flow rate of 5 μL/min for one minute for the other hFcγRs. […] Since the hFcγR binding level depends on the amount of captured antibodies, the FcgR-binding levels were corrected so that the capture level of each antibody would be 200 RU (resonance unit) for hFcgRIa and 1000 RU (resonance unit) for the other hFcgRs. The captured antibodies were washed by allowing 10 mM glycine-HCl (pH 1.5) to react for 30 seconds at a flow rate of 30 μL/min to recycle the chip for reuse.

[2] = target: T2, human Fcγ receptor hFcgRIIa (H) (human, UniProt P12318 36-217)
T2 construct: also called FcγRIIa (type H); FcγIIA
T2 sequence: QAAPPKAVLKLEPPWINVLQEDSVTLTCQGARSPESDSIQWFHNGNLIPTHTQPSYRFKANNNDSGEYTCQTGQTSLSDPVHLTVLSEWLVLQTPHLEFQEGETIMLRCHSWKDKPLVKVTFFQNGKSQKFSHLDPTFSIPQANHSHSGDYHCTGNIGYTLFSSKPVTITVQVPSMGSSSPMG
Procedure: as §1, §2

[3] = target: T3, human Fcγ receptor hFcgRIa (human, UniProt P12314 16-292, limits assumed)
T3 construct: Construct used in the SPR assay is not described; also called hFcγRIa; FcγI
T3 sequence (P12314 16-292 limits assumed): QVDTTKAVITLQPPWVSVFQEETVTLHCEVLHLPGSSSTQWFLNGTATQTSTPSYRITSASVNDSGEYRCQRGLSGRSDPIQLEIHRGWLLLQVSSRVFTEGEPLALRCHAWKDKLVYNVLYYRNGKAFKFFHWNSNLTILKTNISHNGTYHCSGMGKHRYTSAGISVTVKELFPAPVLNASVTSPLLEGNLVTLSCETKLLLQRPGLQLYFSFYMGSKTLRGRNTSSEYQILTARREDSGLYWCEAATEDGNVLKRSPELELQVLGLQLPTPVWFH
Procedure: as §1, §2

[4] = target: T4, human Fcγ receptor hFcgRIIa (R) (human, UniProt P12318 36-217)
T4 construct: also called FcγRIIa (type R); FcγIIA
T4 chain: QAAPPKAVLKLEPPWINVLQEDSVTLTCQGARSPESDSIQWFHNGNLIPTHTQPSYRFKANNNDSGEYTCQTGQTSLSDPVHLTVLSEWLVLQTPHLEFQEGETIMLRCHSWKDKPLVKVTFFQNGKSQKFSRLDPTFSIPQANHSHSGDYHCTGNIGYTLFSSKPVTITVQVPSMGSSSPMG
Procedure: as §1, §2

[5] = target: T5, human Fcγ receptor hFcgRIIIa (V) (human, UniProt P08637 17-208)
T5 construct: also called FcγRIIIa allotype V158; FcγIIIA
T5 sequence (P08637 other isoform, or with tags, fused parts or gaps limits assumed): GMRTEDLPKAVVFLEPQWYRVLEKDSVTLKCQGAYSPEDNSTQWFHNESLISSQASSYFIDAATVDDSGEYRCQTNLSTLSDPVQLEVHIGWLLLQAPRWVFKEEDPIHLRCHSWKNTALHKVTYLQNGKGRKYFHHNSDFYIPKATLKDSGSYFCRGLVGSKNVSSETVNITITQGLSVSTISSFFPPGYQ
Procedure: as §1, §2

B1: TS16 (antibody)
heavy: QVQLQESGPGLVRPSQTLSLTCTVSGYSITSDHAWSWVRQPPGRGLEWIGYISYSGITTYNPSLKSRVTMLRDTSKNQFSLRLSSVTAADTAVYYCARSLARTTAMDYWGQGSLVTVSSASTKGPSVFPLAPSSKSTSGGTAALGCLVKDYFPEPVTVSWNSGALTSGVHTFPAVLQSSGLYSLSSVVTVPSSSLGTQTYICNVNHKPSNTKVDKKVEPKSCDKTHTCPPCPAPELLGGPSVFLFPPKPKDTLMISRTPEVTCVVVDVSHEDPEVKFNWYVDGVEVHNAKTKPREEMGNGTYRVVSVLTVLHQDWLNGKEYKCKVSNKALPAPIEKTISKAKGQPREPQVYTLPPSRDELTKNQVSLTCLVKGFYPSDIAVEWESNGQPENNYKTTPPVLDSDGSFFLYSKLTVDKSRWQQGNVFSCSVMHEALHNHYTQKSLSLSP
light: not shown
notes: anti-IL6R IgG1, G1d with Q295M/Y296G/S298G (EU)
- binding relative to G1 (=100) [1]: 21.7
- binding relative to G1 (=100) [2]: 15.9
- binding relative to G1 (=100) [3]: 96.8
- binding relative to G1 (=100) [4]: 25.3
- binding relative to G1 (=100) [5]: 28.9
